Consider 13 molecules from publication PMC10393190 (Genes & Development, 2022).

The labels stand for the following.
T1: Mer2 (Saccharomyces cerevisiae, UniProt P21651 1-314)
T1 sequence: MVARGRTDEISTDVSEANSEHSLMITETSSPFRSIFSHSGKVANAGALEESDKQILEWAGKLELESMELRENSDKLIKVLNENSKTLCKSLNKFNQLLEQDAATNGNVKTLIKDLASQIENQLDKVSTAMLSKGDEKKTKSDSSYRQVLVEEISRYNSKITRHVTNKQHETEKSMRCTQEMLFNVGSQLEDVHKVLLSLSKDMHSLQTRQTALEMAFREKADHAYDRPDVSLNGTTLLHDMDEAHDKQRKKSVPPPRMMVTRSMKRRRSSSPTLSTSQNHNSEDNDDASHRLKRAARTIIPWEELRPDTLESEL

T2: Rec114-6KR C-terminal domain;Mei4 N-terminal domain (Saccharomyces cerevisiae;Saccharomyces …, UniProt P32841;P29467 375-428;1-43, R395A;K396A;K399A;R400A;K403A;K407A|)
T2 sequence 1: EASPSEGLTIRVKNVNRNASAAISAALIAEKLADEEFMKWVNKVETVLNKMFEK
T2 sequence 2: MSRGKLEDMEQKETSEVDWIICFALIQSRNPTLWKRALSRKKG

T3: IHO1 coiled-coil domain (Mus musculus, UniProt Q6PDM4 109-267)
T3 sequence: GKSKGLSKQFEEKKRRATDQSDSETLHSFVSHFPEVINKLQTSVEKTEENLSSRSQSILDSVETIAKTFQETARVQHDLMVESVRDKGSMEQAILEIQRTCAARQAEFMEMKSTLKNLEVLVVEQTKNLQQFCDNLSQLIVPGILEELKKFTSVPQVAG

T4: Rec15 coiled-coil domain (Schizosaccharomyces pombe, UniProt Q09094 1-160)
T4 sequence: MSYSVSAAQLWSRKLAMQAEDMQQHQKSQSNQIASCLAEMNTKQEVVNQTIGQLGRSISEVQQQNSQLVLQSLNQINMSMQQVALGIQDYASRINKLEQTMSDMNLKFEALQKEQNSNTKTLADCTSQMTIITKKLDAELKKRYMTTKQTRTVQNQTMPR

T5: Mer2-KKTK mutant (Saccharomyces cerevisiae, UniProt P21651 1-314, K137A;K138A;K140A)
T5 sequence: T1 sequence with K137A, K138A, K140A

T6: Rec15-5KR coiled-coil domain (Schizosaccharomyces pombe, UniProt Q09094 1-160, K134A;K135A;K141A;K142A;R143A)
T6 sequence: T4 sequence with K134A, K135A, K141A, K142A, R143A

T7: IHO1-KKRR coiled-coil domain (Mus musculus, UniProt Q6PDM4 109-267, K121A;K122A;R123A;R124A)
T7 sequence: T3 sequence with K13A, K14A, R15A, R16A

B1: Rec114 C-terminal (dimerization) domain, residues 375–428 (domain or fragment)
chain: T2 sequence 1 with A21R, A22K, A25K, A26R, A29K, A33K
B2: HisSUMO-IHO1 coiled-coil domain (residues 109–267) (M. musculus) (domain or fragment)
chain: T3 sequence
B3: Mer2 C-terminal half of the coiled coil (residues 138–224) (domain or fragment)
chain: KTKSDSSYRQVLVEEISRYNSKITRHVTNKQHETEKSMRCTQEMLFNVGSQLEDVHKVLLSLSKDMHSLQTRQTALEMAFREKADHA
B4: Y (cb095/cb098/cb101) (structured_DNA)
DNA 1: CTAGTATAGAGCCGGCGCGCCATGTCTAGATAGCGTTAGGTCTGCCGAATAGTACTACTCGGATCCCGAGCGAACCACGC
DNA 2: CACGGGTAACCGCGGGTACCGTGAAGATCTACTCGCGTCTCCTAACGCTATCTAGACATGGCGCGCCGGCTCTATACTAG
DNA 3: GCGTGGTTCGCTCGGGATCCGAGTAGTACTATTCGGCAGAAGACGCGAGTAGATCTTCACGGTACCCGCGGTTACCCGTG
B5: HJ40 fluorescent (dd077/cb096/cb097/cb098) (structured_DNA)
DNA 1: B4 DNA 1
DNA 2: GCGTGGTTCGCTCGGGATCCGAGTAGTACTATTCGGCAGAGGATTCGAATAGGCCTAATCGAATTCCGCCATCGATGCAC
DNA 3: GTGCATCGATGGCGGAATTCGATTAGGCCTATTCGAATCCAGACGCGAGTAGATCTTCACGGTACCCGCGGTTACCCGTG
DNA 4: B4 DNA 2
B6: Mer2 N-terminal half of the coiled coil (residues 41–136) (domain or fragment)
chain: KVANAGALEESDKQILEWAGKLELESMELRENSDKLIKVLNENSKTLCKSLNKFNQLLEQDAATNGNVKTLIKDLASQIENQLDKVSTAMLSKGDE
B7: HisSUMO-PRD3 coiled-coil domain (residues 120–270) (A. thaliana) (domain or fragment)
chain: IGESKSQISEELEQRFGMMETSLSRFGMMLDSIQSDIMQANRGTKEVFLETERIQQKLTLQDTSLQQLRKEQADSKASLDGGVKFILEEFSKDPNQEKLQKILQMLTTIPEQVETALQKIQREICHTFTREIQVLASLRTPEPRVRVPTAP
B8: HisSUMO-tagged Mer2 coiled-coil domain (residues 41–224) (domain or fragment)
chain: KVANAGALEESDKQILEWAGKLELESMELRENSDKLIKVLNENSKTLCKSLNKFNQLLEQDAATNGNVKTLIKDLASQIENQLDKVSTAMLSKGDEKKTKSDSSYRQVLVEEISRYNSKITRHVTNKQHETEKSMRCTQEMLFNVGSQLEDVHKVLLSLSKDMHSLQTRQTALEMAFREKADHA
B9: HisSUMO-Rec15 coiled-coil domain (residues 1–160) (S. pombe) (domain or fragment)
chain: T4 sequence
B10: Mer2 (residues 161–224) (domain or fragment)
chain: TRHVTNKQHETEKSMRCTQEMLFNVGSQLEDVHKVLLSLSKDMHSLQTRQTALEMAFREKADHA

Positions count from the first letter of the chain named.

Series [1] concerns the target HisSUMO-ASY2 coiled-coil domain (residues 55–275) (Sordaria macrospora) (Sordaria macrospora). As to the kind of experiment: SEC-MALS.
In series [2] the target is HisSUMO-PAIR1 coiled-coil domain (residues 140–310) (Z. mays) (Z. mays). As to the kind of experiment: SEC-MALS.
The series “NMR” concerns the molecule itself. Put plainly: NMR.
Series [3] deals with B1. As to the kind of experiment: NMR.
The series “SEC-MALS” concerns the molecule itself. Put plainly: SEC-MALS.
Another series addresses T1, Mer2. As to the kind of experiment: EMSA. In general terms: In EMSA bound probe runs differently from free probe, usually more slowly.
The target in series [4] is T2, Rec114-6KR C-terminal domain;Mei4 …. As to the kind of experiment: EMSA.
For another series, the target named is T3, IHO1 coiled-coil domain. Put plainly: EMSA.
Another series has as its target T4, Rec15 coiled-coil domain. As to the kind of experiment: EMSA.
The target in the next series is T5, Mer2-KKTK mutant. Put plainly: EMSA.
For series [5], the target named is T6, Rec15-5KR coiled-coil domain. Put plainly: EMSA.
Series [6] concerns the target T7, IHO1-KKRR coiled-coil domain. As to the kind of experiment: EMSA.

As usually defined, the stoichiometry N is a count of units in the complex or per binding partner.

Consider “HisSUMO-ASY2 coiled-coil domain (residues 55–275) (Sordaria macrospora) (domain or fragment)”, for which the stoichiometry N in [1] stood at 4.
Regarding “HisSUMO-PAIR1 coiled-coil domain (residues 140–310) (Z. mays) (domain or fragment)”, the stoichiometry N in series [2] stood at 4.
Turning to B1, in the series “NMR”, the binding result was “binds”.
Regarding MSRGKLEDMEQKETSEVDWIICFALIQSRNPTLWKRALSRKKG (domain or fragment) [Mei4 N-terminal domain, residues 1–43], the binding result in series [3] is “binds”.
Consider B2, for which, in the series “SEC-MALS”, the “stoichiometry N” value was 4.
On the same count and under the same terms, to B3 belongs 4.
As for B4, the “apparent K (half saturation)” value in the series with Mer2 was found to be 10.6 ± 1.2 nM.
B5: the binding result in [4] is “no binding”; with IHO1 coiled-coil domain, “binds”; with Rec15 coiled-coil domain it was “binds”; with Mer2-KKTK mutant it was “binds”; in [5] it was “no binding”; in [6] it was “no binding”.
B6: the “stoichiometry N” value in the series “SEC-MALS” amounted to 2.
Same read-out and setting: next, B7: 4; B8: 4; B9: 4.
Still for that read-out and setting: next, B10: 3.
